Experiment [1] concerns the target T1, canine FcRn (canine).
T1 construct: Injected in solution as SPR analyte
Kind of experiment: SPR, pH 5.5, FcRn 100-800 nM over captured Fc.

The target in experiment [2] is T1, canine FcRn. The experiment is described as follows: SPR, pH 5.5, FcRn 400 nM over captured Fc.
The target of experiment [3] is T1, canine FcRn. The experiment is described as follows: SPR, pH 5.5, FcRn 200 nM over captured Fc.
Experiment [4] addresses T1, canine FcRn. The experiment is described as follows: SPR, pH 5.5, FcRn 200 nM over captured Fc. The source holds these as a separate data set.
In experiment [5] the target is T1, canine FcRn. The experiment is described as follows: SPR, pH 5.5, FcRn 200 nM over captured Fc. The source holds these as a separate data set.
The target of experiment [6] is T1, canine FcRn. Kind of experiment: SPR, pH 5.5, FcRn 200 nM over captured Fc. The source holds these as a separate data set.
The target of experiment [7] is T1, canine FcRn. Kind of experiment: SPR, pH 5.5, FcRn 200 nM over captured Fc. This is another data set of the same source.
The target in experiment [8] is T1, canine FcRn. Kind of experiment: SPR, pH 5.5, FcRn 200 nM over captured Fc. The source holds these as a separate data set.
Experiment [9] addresses T1, canine FcRn. The experiment is described as follows: SPR, pH 5.5, FcRn 200 nM over captured Fc. This is another data set of the same source.
Experiment [10] has as its target T1, canine FcRn. Kind of experiment: SPR, pH 5.5, FcRn 200 nM over captured Fc. This is another data set of the same source.
Experiment [11] has as its target T1, canine FcRn. The experiment is described as follows: SPR, pH 5.5, FcRn 400 nM over captured Fc; average of the wild type replicates.

Numbering of substitutions follows the chain as printed. Numbers in names are those of the source. Where “and” joins values, the source holds several entries; their conditions need not be identical. Identical values can stand only once.

B1: canine IgG.B Fc variant N434H with SASA tag (Fc fusion)
chain: APEMLGGPSVFIFPPKPKDTLLIARTPEVTCVVVDLDPEDPEVQISWFVDGKQMQTAKTQPREEQFNGTYRVVSVLPIGHQDWLKGKQFTCKVNNKALPSPIERTISKARGQAHQPSVYVLPPSREELSKNTVSLTCLIKDFFPPDIDVEWQSNGQQEPESKYRTTPPQLDEDGSYFLYSKLSVDKSRWQRGDTFICAVMHEALHHHYTQESLSHSPGK
Take B1: in the experiment with canine FcRn [1], the affinity, expressed as Kd, was 247 nM; the koff is 0.102 s⁻¹; the kon is 411000 M⁻¹ s⁻¹.

B2: canine IgG.B Fc variant N434A with SASA tag (Fc fusion)
chain: B1 chain with H206A
Take B2: in the experiment with canine FcRn [2], the Kd was 457 nM and 494 nM; the koff is 0.237 s⁻¹ and 0.477 s⁻¹; the kon was 518000 M⁻¹ s⁻¹ and 966000 M⁻¹ s⁻¹. In the experiment with canine FcRn [3], the Kd is 573 nM and 629 nM; the koff was 0.156 s⁻¹ and 0.164 s⁻¹; the kon was 272000 M⁻¹ s⁻¹ and 261000 M⁻¹ s⁻¹.

B3: canine IgG.B Fc variant A254S with SASA tag (Fc fusion)
chain: B1 chain with A24S, H206N
For B3, the Kd with canine FcRn [2] is 340 nM and 317 nM.

B4: canine IgG.B Fc variant Q311V with SASA tag (Fc fusion)
chain: B1 chain with Q81V, H206N
On to B4, for which, in the experiment with canine FcRn [4], the Kd was 372 nM and 439 nM; the dissociation rate constant (koff) is 0.566 s⁻¹ and 0.696 s⁻¹; the kon is 1.52e+06 M⁻¹ s⁻¹ and 1.59e+06 M⁻¹ s⁻¹.

B5: canine IgG.B Fc variant N434W with SASA tag (Fc fusion)
chain: B1 chain with H206W
For the molecule B5, the Kd with canine FcRn [3] was 40.4 nM and 75.7 nM. In the experiment with canine FcRn [1], the Kd was 101 nM, the koff turned out to be 0.045 s⁻¹ and the on-rate constant (kon) worked out at 446000 M⁻¹ s⁻¹.

B6: canine IgG.B Fc variant Q285A with SASA tag (Fc fusion)
chain: B1 chain with Q55A, H206N
B6: the Kd in the experiment with canine FcRn [2] is 341 nM and 257 nM.

B7: canine IgG.B Fc variant N434R with SASA tag (Fc fusion)
chain: B1 chain with H206R
In the case of B7, in the experiment with canine FcRn [3], the Kd is 107 nM and 159 nM; the koff is 0.0524 s⁻¹ and 0.0633 s⁻¹; the kon is 488000 M⁻¹ s⁻¹ and 399000 M⁻¹ s⁻¹. In the experiment with canine FcRn [1], the Kd is 182 nM, the dissociation rate constant (koff) was found to be 0.0801 s⁻¹ and the kon turned out to be 440000 M⁻¹ s⁻¹.

B8: canine IgG.B Fc variant I308A with SASA tag (Fc fusion)
chain: B1 chain with I78A, H206N
In the case of B8, in the experiment with canine FcRn [2], the Kd was 472 nM and 563 nM; the koff was 0.169 s⁻¹ and 0.194 s⁻¹; the kon is 357000 M⁻¹ s⁻¹ and 345000 M⁻¹ s⁻¹.

B9: canine IgG.B Fc variant Y436A with SASA tag (Fc fusion)
chain: B1 chain with H206N, Y208A
B9: in the experiment with canine FcRn [2], the Kd is 393 nM and 876 nM; the koff was 0.407 s⁻¹ and 0.213 s⁻¹.

B10: canine IgG.B Fc variant T250A with SASA tag (Fc fusion)
chain: B1 chain with T20A, H206N
B10: the Kd with canine FcRn [2] is 335 nM and 328 nM.

B11: wild-type canine IgG.B Fc (CH2 and CH3 domains) with upstream SASA tag (Fc fusion)
chain: B1 chain with H206N
Consider B11, for which the equilibrium dissociation constant (Kd) with canine FcRn [5] was 8990 nM and 3110 nM; with canine FcRn [6], 1710 nM and 2660 nM; with canine FcRn [7], 2050 nM and 2990 nM; in the experiment with canine FcRn [8], 884 nM and 862 nM; in the experiment with canine FcRn [4] it was 639 nM and 692 nM; with canine FcRn [9] it was 502 nM and 784 nM. Further, the Kd in the experiment with canine FcRn [10] was 1560 nM and 754 nM; in the experiment with canine FcRn [3] it was 955 nM and 1310 nM; with canine FcRn [1] it was 3150 nM; with canine FcRn [11], 566 nM. Also, the koff with canine FcRn [5] is 0.347 s⁻¹ and 0.354 s⁻¹; with canine FcRn [6], 0.288 s⁻¹ and 0.326 s⁻¹; with canine FcRn [7], 0.31 s⁻¹ and 0.315 s⁻¹; in the experiment with canine FcRn [8], 0.21 s⁻¹ and 0.218 s⁻¹; with canine FcRn [4] it was 0.17 s⁻¹ and 0.171 s⁻¹; with canine FcRn [9], 0.169 s⁻¹ and 0.207 s⁻¹. Moreover, the koff with canine FcRn [10] was 0.179 s⁻¹ and 0.182 s⁻¹; with canine FcRn [3], 0.181 s⁻¹ and 0.209 s⁻¹; with canine FcRn [1] it was 0.527 s⁻¹. Further, the kon in the experiment with canine FcRn [5] is 38700 M⁻¹ s⁻¹ and 114000 M⁻¹ s⁻¹; with canine FcRn [6] it was 168000 M⁻¹ s⁻¹ and 123000 M⁻¹ s⁻¹; with canine FcRn [7] it was 151000 M⁻¹ s⁻¹ and 105000 M⁻¹ s⁻¹; with canine FcRn [8], 237000 M⁻¹ s⁻¹ and 253000 M⁻¹ s⁻¹; with canine FcRn [4], 267000 M⁻¹ s⁻¹ and 247000 M⁻¹ s⁻¹; with canine FcRn [9], 336000 M⁻¹ s⁻¹ and 264000 M⁻¹ s⁻¹. The kon in the experiment with canine FcRn [10] was 115000 M⁻¹ s⁻¹ and 242000 M⁻¹ s⁻¹; with canine FcRn [3], 190000 M⁻¹ s⁻¹ and 159000 M⁻¹ s⁻¹; with canine FcRn [1], 168000 M⁻¹ s⁻¹.

B12: canine IgG.B Fc variant G309P with SASA tag (Fc fusion)
chain: B1 chain with G79P, H206N
Regarding B12, in the experiment with canine FcRn [8], the Kd is 635 nM and 434 nM and 637 nM and 718 nM; the off-rate constant (koff) was 0.239 s⁻¹ and 0.242 s⁻¹ and 0.132 s⁻¹ and 0.145 s⁻¹; the association rate constant (kon) is 377000 M⁻¹ s⁻¹ and 558000 M⁻¹ s⁻¹ and 207000 M⁻¹ s⁻¹ and 202000 M⁻¹ s⁻¹.

B13: canine IgG.B Fc variant K315A with SASA tag (Fc fusion)
chain: B1 chain with K85A, H206N
For B13, in the experiment with canine FcRn [2], the Kd is 422 nM and 548 nM.

B14: canine IgG.B Fc variant M428A with SASA tag (Fc fusion)
chain: B1 chain with M200A, H206N
With B14, in the experiment with canine FcRn [2], the dissociation constant Kd was 723 nM and 1670 nM; the kon is 234000 M⁻¹ s⁻¹ and 318000 M⁻¹ s⁻¹.

B15: canine IgG.B Fc variant D378A with SASA tag (Fc fusion)
chain: B1 chain with D148A, H206N
With B15, in the experiment with canine FcRn [2], the Kd was 673 nM and 592 nM; the koff is 0.183 s⁻¹ and 0.181 s⁻¹; the kon was 272000 M⁻¹ s⁻¹ and 306000 M⁻¹ s⁻¹.

B16: canine IgG.B Fc variant H433A with SASA tag (Fc fusion)
chain: B1 chain with H205A, H206N
Take B16: in the experiment with canine FcRn [2], the equilibrium dissociation constant (Kd) was 266 nM and 359 nM; the koff was 0.229 s⁻¹ and 0.0997 s⁻¹.

For the origin of these results see US20230279118A1 (published 2023).
